Residue numbers refer to the chain shown, from its start.
T1: B7H3 (antigen of the affinity statements) (human, UniProt Q5ZPR3 29-466, limits assumed)
T1 construct: also called CD276
T1 sequence (looked up): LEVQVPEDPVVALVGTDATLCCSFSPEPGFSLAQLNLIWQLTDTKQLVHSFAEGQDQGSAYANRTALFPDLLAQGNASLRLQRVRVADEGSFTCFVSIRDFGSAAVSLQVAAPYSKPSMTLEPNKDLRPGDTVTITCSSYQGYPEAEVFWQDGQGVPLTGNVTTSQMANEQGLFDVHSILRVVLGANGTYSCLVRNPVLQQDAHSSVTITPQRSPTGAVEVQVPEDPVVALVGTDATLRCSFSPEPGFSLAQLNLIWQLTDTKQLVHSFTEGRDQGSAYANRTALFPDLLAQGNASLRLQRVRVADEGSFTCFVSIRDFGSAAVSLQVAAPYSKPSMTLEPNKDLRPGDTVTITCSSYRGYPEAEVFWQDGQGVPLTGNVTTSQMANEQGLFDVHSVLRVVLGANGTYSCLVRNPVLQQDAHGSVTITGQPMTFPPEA

T2: mouse Fc fusion of B7H3, full extracellular V1C1-V2C2 domain (human, UniProt Q5ZPR3 29-466)
T2 construct: extracellular domain; Fusions of the single V1C1 and V2C2 domains were tested as well; also called B7H3 antigen; printed 'V1C1-V2V2'; not shown: mouse Fc
T2 sequence (looked up): T1 sequence (looked up)

B1: XENP34339 (bispecific antibody)
heavy 1: EVQLLESGGGLVQPGGSLRLSCAASGFTFSSYYMSWVRQAPGKGLEWVSTISESGDSTYYADSVKGRFTISRDNSKNTLYLQMNSLRAEDTAVYYCAKSGPGLRQVGFDYWGQGTLVTVSSASTKGPSVFPLAPSSKSTSGGTAALGCLVKDYFPEPVTVSWNSGALTSGVHTFPAVLQSSGLYSLSSVVTVPSSSLGTQTYICNVNHKPSDTKVDKKVEPKSCDKTHTCPPCPAPPVAGPSVFLFPPKPKDTLMISRTPEVTCVVVDVKHEDPEVKFNWYVDGVEVHNAKTKPREEEYNSTYRVVSVLTVLHQDWLNGKEYKCKVSNKALPAPIEKTISKAKGQPREPQVYTLPPSREEMTKNQVSLTCDVSGFYPSDIAVEWESDGQPENNYKTTPPVLDSDGSFFLYSKLTVDKSRWEQGDVFSCSVMHEALHNHYTQKSLSLSPGK
heavy 2: QVQLVQSGAEVKKPGASVKVSCKASGYIFTNNYMHWVRQAPGQGLEWMGIISPSVGRTAYAQKFQGRVTMTRDTSTSTVYMELSSLRSEDTAVYYCARGGGSSPRLDYWGQGTLVTVSSASTKGPSVFPLAPSSKSTSGGTAALGCLVKDYFPEPVTVSWNSGALTSGVHTFPAVLQSSGLYSLSSVVTVPSSSLGTQTYICNVNHKPSNTKVDKKVEPKSCGKPGSGKPGSQVQLVQSGAEVKKPGASVKVSCKASGYIFTNNYMHWVRQAPGQGLEWMGIISPSVGRTAYAQKFQGRVTMTRDTSTSTVYMELSSLRSEDTAVYYCARGGGSSPRLDYWGQGTLVTVSSASTKGPSVFPLAPSSKSTSGGTAALGCLVKDYFPEPVTVSWNSGALTSGVHTFPAVLQSSGLYSLSSVVTVPSSSLGTQTYICNVNHKPSNTKVDKKVEPKSCDKTHTCPPCPAPPVAGPSVFLFPPKPKDTLMISRTPEVTCVVVDVKHEDPEVKFNWYVDGVEVHNAKTKPREEQYNSTYRVVSVLTVLHQDWLNGKEYKCKVSNKALPAPIEKTISKAKGQPREPQVYTLPPSREQMTKNQVKLTCLVKGFYPSDIAVEWESNGQPENNYKTTPPVLDSDGSFFLYSKLTVDKSRWQQGNVFSCSVMHEALHNHYTQKSLSLSPGK
light: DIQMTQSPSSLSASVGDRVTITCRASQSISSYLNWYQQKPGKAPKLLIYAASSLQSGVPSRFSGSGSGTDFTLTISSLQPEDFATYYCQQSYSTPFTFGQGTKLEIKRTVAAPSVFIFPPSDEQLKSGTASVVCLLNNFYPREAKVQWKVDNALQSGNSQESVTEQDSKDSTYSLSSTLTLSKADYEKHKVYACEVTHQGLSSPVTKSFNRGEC
notes: 2+1 CLC format; also called B7H3 x CD28 bsAb in 2+1 CLC format; copies: 1 + 1 + 3
B2: XENP35611 (bispecific antibody)
heavy 1: B1 heavy 1 with Y33A, E53G
heavy 2: B1 heavy 2
light: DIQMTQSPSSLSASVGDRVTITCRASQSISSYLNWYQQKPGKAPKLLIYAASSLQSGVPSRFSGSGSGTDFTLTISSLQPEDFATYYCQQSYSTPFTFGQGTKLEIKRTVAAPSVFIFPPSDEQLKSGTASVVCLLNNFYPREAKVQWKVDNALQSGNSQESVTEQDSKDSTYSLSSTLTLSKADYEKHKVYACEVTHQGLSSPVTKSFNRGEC
notes: 2+1 CLC format; copies: 1 + 1 + 3
B3: XENP35612 (bispecific antibody)
heavy 1: B1 heavy 1 with E53G
heavy 2: B1 heavy 2
light: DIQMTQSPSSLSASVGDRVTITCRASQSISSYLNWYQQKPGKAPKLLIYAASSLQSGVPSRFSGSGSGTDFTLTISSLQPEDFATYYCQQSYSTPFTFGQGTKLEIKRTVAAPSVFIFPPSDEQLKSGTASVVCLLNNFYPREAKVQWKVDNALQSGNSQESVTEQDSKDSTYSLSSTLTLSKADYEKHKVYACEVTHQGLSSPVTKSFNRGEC
notes: as for B2
B4: XENP35151 (bispecific antibody)
heavy: EVQLVESGGGLVKPGGSLRLSCAASGFSFSVGYYMCWVRQAPGKGLEWVSCIYVGSGSSGSTYYASVKGRFTISSDTAKTSVYLQMNSLRAEDTAVYFCARTAGSDWRLDLWGQGTLVTVSSASTKGPSVFPLAPSSKSTSGGTAALGCLVKDYFPEPVTVSWNSGALTSGVHTFPAVLQSSGLYSLSSVVTVPSSSLGTQTYICNVNHKPSDTKVDKKVEPKSCDKTHTCPPCPAPPVAGPSVFLFPPKPKDTLMISRTPEVTCVVVDVKHEDPEVKFNWYVDGVEVHNAKTKPREEEYNSTYRVVSVLTVLHQDWLNGKEYKCKVSNKALPAPIEKTISKAKGQPREPQVYTLPPSREEMTKNQVSLTCDVSGFYPSDIAVEWESDGQPENNYKTTPPVLDSDGSFFLYSKLTVDKSRWEQGDVFSCSVLHEALHSHYTQKSLSLSPGK
scFv-Fc: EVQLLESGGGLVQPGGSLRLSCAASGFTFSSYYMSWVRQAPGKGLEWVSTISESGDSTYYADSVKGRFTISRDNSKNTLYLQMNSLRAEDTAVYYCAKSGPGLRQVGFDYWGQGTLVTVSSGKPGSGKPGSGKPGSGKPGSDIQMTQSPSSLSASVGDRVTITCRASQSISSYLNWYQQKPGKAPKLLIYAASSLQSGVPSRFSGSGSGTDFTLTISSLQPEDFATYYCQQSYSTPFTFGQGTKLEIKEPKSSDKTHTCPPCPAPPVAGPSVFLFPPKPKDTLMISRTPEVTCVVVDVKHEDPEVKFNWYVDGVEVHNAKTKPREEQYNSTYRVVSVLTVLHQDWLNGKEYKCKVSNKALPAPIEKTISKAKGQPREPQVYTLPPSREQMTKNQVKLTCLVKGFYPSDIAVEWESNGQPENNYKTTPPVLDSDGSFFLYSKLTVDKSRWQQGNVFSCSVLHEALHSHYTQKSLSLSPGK
light: DIVMTQSPSSLSASVGDRVTITCRASQSIANELSWYQQKPGKPPKLLIYRASTLTSGVPSRFKGSGSGTDFTLTISSLQPEDFATYYCQSTYNGRAIGFGGGTKVEIKRTVAAPSVFIFPPSDEQLKSGTASVVCLLNNFYPREAKVQWKVDNALQSGNSQESVTEQDSKDSTYSLSSTLTLSKADYEKHKVYACEVTHQGLSSPVTKSFNRGEC
notes: 1+1 Fab-scFv-Fc; copies: 1 + 1 + 1
B5: XENP34732 (bispecific antibody)
heavy: EVQLLESGGGLVQPGGSLRLSCAASGFTFSNYYMAWVRQAPGKGLEWVSSISTGGGSTYYRDSVKGRFTISRDNSKSTLYLQMNSLRAEDTAVYYCTTDLSAIAATPFAYWGQGTLVTVSSASTKGPSVFPLAPSSKSTSGGTAALGCLVKDYFPEPVTVSWNSGALTSGVHTFPAVLQSSGLYSLSSVVTVPSSSLGTQTYICNVNHKPSDTKVDKKVEPKSCDKTHTCPPCPAPPVAGPSVFLFPPKPKDTLMISRTPEVTCVVVDVKHEDPEVKFNWYVDGVEVHNAKTKPREEEYNSTYRVVSVLTVLHQDWLNGKEYKCKVSNKALPAPIEKTISKAKGQPREPQVYTLPPSREEMTKNQVSLTCDVSGFYPSDIAVEWESDGQPENNYKTTPPVLDSDGSFFLYSKLTVDKSRWEQGDVFSCSVLHEALHSHYTQKSLSLSPGK
scFv-Fc: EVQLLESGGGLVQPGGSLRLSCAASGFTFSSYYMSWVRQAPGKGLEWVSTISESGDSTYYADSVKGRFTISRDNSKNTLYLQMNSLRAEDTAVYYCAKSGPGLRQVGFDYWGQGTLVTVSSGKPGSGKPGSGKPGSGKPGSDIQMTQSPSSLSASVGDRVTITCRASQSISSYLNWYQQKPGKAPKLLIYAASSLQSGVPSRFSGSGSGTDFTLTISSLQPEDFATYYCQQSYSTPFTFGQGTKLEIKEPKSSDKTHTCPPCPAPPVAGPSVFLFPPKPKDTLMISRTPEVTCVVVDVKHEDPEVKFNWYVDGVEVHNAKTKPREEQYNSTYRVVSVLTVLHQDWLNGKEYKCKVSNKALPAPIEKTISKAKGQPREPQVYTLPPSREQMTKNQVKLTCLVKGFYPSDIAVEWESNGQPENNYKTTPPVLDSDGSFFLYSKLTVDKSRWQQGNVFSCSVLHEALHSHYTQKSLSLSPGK
light: DIQMTQSPSSLSASVGDRVTITCRASQNIYTSLAWYQQKPGKAPKLLIYNAHSLQTGIPSRFSGSGSGADFTLTISSLQPEDFATYFCQQYYSGLTFGSGTKLEIKRTVAAPSVFIFPPSDEQLKSGTASVVCLLNNFYPREAKVQWKVDNALQSGNSQESVTEQDSKDSTYSLSSTLTLSKADYEKHKVYACEVTHQGLSSPVTKSFNRGEC
notes: as for B4
B6: XENP35153 (bispecific antibody)
heavy: EVQLLESGGGLVQPGGSLRLSCAVSGFSLSSYGVIWVRQAPGKGLEYVSWVSSGGSTNYASSVKGRFTISRDTSKNTVYLQMNSLRAEDTAVYFCARGATNSGTDIWGPGTLVTVSSASTKGPSVFPLAPSSKSTSGGTAALGCLVKDYFPEPVTVSWNSGALTSGVHTFPAVLQSSGLYSLSSVVTVPSSSLGTQTYICNVNHKPSDTKVDKKVEPKSCDKTHTCPPCPAPPVAGPSVFLFPPKPKDTLMISRTPEVTCVVVDVKHEDPEVKFNWYVDGVEVHNAKTKPREEEYNSTYRVVSVLTVLHQDWLNGKEYKCKVSNKALPAPIEKTISKAKGQPREPQVYTLPPSREEMTKNQVSLTCDVSGFYPSDIAVEWESDGQPENNYKTTPPVLDSDGSFFLYSKLTVDKSRWEQGDVFSCSVLHEALHSHYTQKSLSLSPGK
scFv-Fc: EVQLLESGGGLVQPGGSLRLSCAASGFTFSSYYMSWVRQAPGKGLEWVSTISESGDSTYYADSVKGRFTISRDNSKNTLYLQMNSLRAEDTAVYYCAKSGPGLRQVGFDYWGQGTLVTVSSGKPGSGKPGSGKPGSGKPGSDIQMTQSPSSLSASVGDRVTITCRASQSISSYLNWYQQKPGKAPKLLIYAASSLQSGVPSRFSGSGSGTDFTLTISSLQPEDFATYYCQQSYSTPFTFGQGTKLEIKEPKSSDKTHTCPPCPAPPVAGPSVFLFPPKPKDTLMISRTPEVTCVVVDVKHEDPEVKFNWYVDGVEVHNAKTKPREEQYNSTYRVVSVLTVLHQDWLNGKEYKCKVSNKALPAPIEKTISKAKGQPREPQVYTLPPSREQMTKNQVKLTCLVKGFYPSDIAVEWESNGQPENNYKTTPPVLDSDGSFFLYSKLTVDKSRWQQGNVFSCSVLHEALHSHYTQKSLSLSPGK
light: DIVMTQSPSSLSASVGDRVTITCRASQSINSWLSWYQQKPGKPPKLLIYGASNLASGVPSRFKGSGSGTDFTLTISSLQPEDFATYYCQNNYGIIAAGATFGGGTKVEIKRTVAAPSVFIFPPSDEQLKSGTASVVCLLNNFYPREAKVQWKVDNALQSGNSQESVTEQDSKDSTYSLSSTLTLSKADYEKHKVYACEVTHQGLSSPVTKSFNRGEC
notes: as for B4
B7: XENP34717 (bispecific antibody)
heavy 1: B1 heavy 1
heavy 2: QVQLVQSGAEVKKPGASVKVSCKASGYIFTNNYMHWVRQAPGQGLEWMGIISPSVGRTAYAQKFQGRVTMTRDTSTSTVYMELSSLRSEDTAVYYCARGGGSSPRLDYWGQGTLVTVSSASTKGPSVFPLAPSSKSTSGGTAALGCLVKDYFPEPVTVSWNSGALTSGVHTFPAVLQSSGLYSLSSVVTVPSSSLGTQTYICNVNHKPSNTKVDKKVEPKSCDKTHTCPPCPAPPVAGPSVFLFPPKPKDTLMISRTPEVTCVVVDVKHEDPEVKFNWYVDGVEVHNAKTKPREEQYNSTYRVVSVLTVLHQDWLNGKEYKCKVSNKALPAPIEKTISKAKGQPREPQVYTLPPSREQMTKNQVKLTCLVKGFYPSDIAVEWESNGQPENNYKTTPPVLDSDGSFFLYSKLTVDKSRWQQGNVFSCSVMHEALHNHYTQKSLSLSPGK
light: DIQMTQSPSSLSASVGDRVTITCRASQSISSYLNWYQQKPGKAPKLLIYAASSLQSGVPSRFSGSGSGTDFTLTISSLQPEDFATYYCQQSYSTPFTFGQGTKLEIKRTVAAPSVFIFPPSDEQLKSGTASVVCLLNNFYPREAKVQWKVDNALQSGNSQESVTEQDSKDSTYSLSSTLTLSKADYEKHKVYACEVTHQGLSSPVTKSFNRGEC
notes: copies: 1 + 1 + 2
B8: XENP34336 (bispecific antibody)
heavy 1: B1 heavy 1
heavy 2: B1 heavy 2 with N32H, V55A, R57S, A59D, N264H, V287A, R289S, A291D
light: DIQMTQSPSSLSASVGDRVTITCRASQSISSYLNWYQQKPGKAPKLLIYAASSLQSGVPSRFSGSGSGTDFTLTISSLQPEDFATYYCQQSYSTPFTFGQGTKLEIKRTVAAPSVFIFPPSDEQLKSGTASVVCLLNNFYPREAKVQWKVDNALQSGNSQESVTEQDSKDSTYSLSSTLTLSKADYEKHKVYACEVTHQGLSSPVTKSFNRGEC
notes: as for B2

Key:
[1] = target: T3, CD28 (antigen of the affinity determinations) (human, UniProt P10747 19-152, limits assumed); assay: binding affinity of the CD28 binding domain; method not given
T3 construct: also called human CD28

[2] = target: T1, B7H3 (antigen of the affinity …); assay: monovalent affinity in 1+1 bsAb format (Example 2B)
[3] = target: T2, mouse Fc fusion of B7H3, full …; assay: Octet (BLI), B7H3 mouse Fc fusions on anti-mouse Fc biosensors, 1:1 Langmuir fit
Excerpt: To investigate whether the difference observed for XENP34339 resulted from the difference in B7H3 binding domain or the difference in bispecific antibody format, the component binding domains of XENP34339 and XENP34389 were biophysically characterized using Octet. […] Anti-mouse Fc biosensors were used to capture mouse Fc fusions of B7H3, either the full extracellular V1C1-[…] domain or the individual V1C1 or V2C2 domains, and dipped into multiple concentrations of XENP34717 or XENP34728. Kinetic analyses were performed by global fitting of binding data with a 1:1 Langmuir binding model. […] Next, the binding affinities of the CD28 binding domains for CD28 antigen in the 2+1 CLC format and the 2+1 Fab2-scFv-Fc format was investigated. Anti-HIS capture (HIS1K) biosensors were used to capture CD28-Fc-His protein and dipped into multiple concentrations of XENP34339 or XENP34389. Kinetic analyses were performed by global fitting of binding data with a 1:1 Langmuir binding model as well as steady state model. The resulting dissociation constant (KD) are depicted in FIG. 53.

Binder | Kd [1] [µM] | binding result [2] | other results
B1 | 0.077 |  | 
B2 | 0.61 |  | 
B3 | 0.27 |  | 
B4 |  | binds | 
B5 |  | binds | 
B6 |  | binds | 
B7 |  |  | binding result [3]: binds
B8 | 0.44 |  | 

— patent US20220098306A1 (Xencor, published 2022)
